{
  "source": "IntAct's records for PubMed 19262565",
  "parents": {"B1": {"name": "Histone-lysine N-methyltransferase SETD7 (Homo sapiens), Q8WTS6 (parent)", "chain": "MDSDDEMVEEAVEGHLDDDGLPHGFCTVTYSSTDRFEGNFVHGEKNGRGKFFFFDGSTLEGYYVDDALQGQGVYTYEDGGVLQGTYVDGELNGPAQEYDTDGRLIFKGQYKDNIRHGVCWIYYPDGGSLVGEVNEDGEMTGEKIAYVYPDERTALYGKFIDGEMIEGKLATLMSTEEGRPHFELMPGNSVYHFDKSTSSCISTNALLPDPYESERVYVAESLISSAGEGLFSKVAVGPNTVMSFYNGVRITHQEVDSRDWALNGNTLSLDEETVIDVPEPYNHVSKYCASLGHKANHSFTPNCIYDMFVHPRFGPIKCIRTLRAVEADEELTVAYGYDHSPPGKSGPEAPEWYQVELKAFQATQQK"}},
  "data": [
    {"variants_of": "B1", "details": "with tf65_human RELA", "values": [
      {"variant": "MDSDDEMVEEAVEGHLDDDGLPHGFCTVTYSSTDRFEGNFVHGEKNGRGKFFFFDGSTLEGYYVDDALQGQGVYTYEDGGVLQGTYVDGELNGPAQEYDTDGRLIFKGQYKDNIRHGVCWIYYPDGGSLVGEVNEDGEMTGEKIAYVYPDERTALYGKFIDGEMIEGKLATLMSTEEGRPHFELMPGNSVYHFDKSTSSCISTNALLPDPYESERVYVAESLISSAGEGLFSKVAVGPNTVMSFYNGVRITHQEVDSRDWALNGNTLSLDEETVIDVPEPYNHVSKYCASLGHKANASFTPNCIYDMFVHPRFGPIKCIRTLRAVEADEELTVAYGYDHSPPGKSGPEAPEWYQVELKAFQATQQK", "note": "[H297A]", "effect of a mutation on the interaction": "disrupting interaction"}
    ]}
  ]
}
